Where “and” joins values, the source holds several entries; their conditions need not be identical. Equal entries are not always repeated. Values belong to the substance of their own block, whether it stands above or below them.
Legend:
[1] = molecular target: Fc-MST-HN (IgG1 Fc fragment with M252Y, S254T, T256E, H433K, N434F) (human); assay: crystal structure; Fc-MST-HN with EndoH- and thrombin-treated FcRn:beta2M, complex isolated by preparative SEC; crystals from 0.1 M sodium cacodylate pH 7.0, 293 K
[2] = molecular target: FcRn coupled to the FcRn Affinity Column (Roche) (UniProt P55899); assay: FcRn-affinity chromatography; FcRn Affinity Column (Roche); antibody or fragment injected at pH 5.5 (20 mM MES, 150 mM NaCl), pH gradient to pH 8.8 (20 mM Tris-HCl, 150 mM NaCl); elution pH read
[3] = molecular target: recombinant human FcRn (FcRn alpha-chain with C-terminal BirA 10x-Histidine tag, with beta-2-microglobulin) (human) (UniProt P55899); assay: SPR
[4] = molecular target: recombinant human FcRn (FcRn alpha-chain with C-terminal BirA 10x-Histidine tag, with beta-2-microglobulin) (human) (UniProt P55899); assay: SPR; pH 7.4
Fc-MST-HN (human) [5] = assay: SPR; IBIS MX96; IgG or Fc randomly coupled on a SensEye G Easy2Spot array at four spotting concentrations (60, 30, 15, 7.5 nM); monomeric human FcRn injected 0.49-1000 nM in PBS, 0.075% Tween 80, pH 6.0; equilibrium analysis, Langmuir 1:1 model; one KD for each spot (with its RU), later interpolated to Rmax = 700 RU
Fc-WT (human) = assay: as above
[6] = molecular target: anti-HEL IgG1-MST-HN (human); assay: as above
anti-HEL IgG1-WT (human) = assay: as above
Fc-MST-HN (human) [7] = assay: SPR; IBIS MX96; IgG or Fc randomly coupled on a SensEye G Easy2Spot array at four spotting concentrations (60, 30, 15, 7.5 nM); monomeric human FcRn injected 0.49-1000 nM in PBS, 0.075% Tween 80, pH 7.4; equilibrium analysis, Langmuir 1:1 model; one KD for each spot (with its RU), later interpolated to Rmax = 700 RU
[8] = molecular target: recombinant human FcRn (FcRn alpha-chain with C-terminal BirA 10x-Histidine tag, with beta-2-microglobulin) (human) (UniProt P55899); assay: SPR; pH 6.0
Fc-MST (human) = assay: ITC; 37 °C, PEAQ-ITC; as drawn in the figure FcRn:b2M titrated into the Fc (reverse setup: 6 uM in the cell, 165 uM in the syringe); fit A + B + B with 2 symmetric sites, macroscopic K (Sedphat); buffer and pH not stated; four runs for Fc-MST-HN (values averaged), one for Fc-YTE

stoichiometry N [1]: 2 FcRn per Fc
Substance: FcRn:beta2M (FcRn residues 1-297 with beta-2-microglobulin residues 1-119), EndoH-treated, tags removed by thrombin (from UniProt P55899 24-297; P61769 21-119) (complex)

elution pH [2]: 8.7 pH
Substance: Fc-MST-HN (IgG1 Fc fragment with M252Y, S254T, T256E, H433K, N434F) (domain or fragment)

Kd [3]: 39 nM
Kd [4]: 899 nM
Substance: anti-HEL IgG1-MST-HN (full-size IgG1) (from UniProt P01857)

elution pH [2]: 8.7 pH
Substance: anti-HEL IgG1-MST-HN (full-size IgG1) (antibody)

Kd (Fc-MST-HN (human) [5]): 37 nM and 34 nM and 32 nM
Kd (Fc-WT (human)): 240 nM and 270 nM
Kd [6]: 37 nM and 34 nM
Kd (anti-HEL IgG1-WT (human)): 600 nM
Kd (Fc-MST-HN (human) [7]): 1150 nM and 1040 nM and 830 nM
Substance: recombinant human FcRn (FcRn α-chain with ß2-microglobulin) (from UniProt P55899 24-297; P61769 21-119) (receptor)

elution pH [2]: 7 pH
Substance: Fc-WT (wild-type human IgG1 Fc fragment) (domain or fragment)

Kd [8]: 200 nM
Substance: anti-biotin IgG1-WT (from UniProt P01857)

elution pH [2]: 7 pH
Substance: anti-HEL IgG1-WT (full-size IgG1) (antibody)

Kd [3]: 381 nM
Substance: anti-HEL IgG1-WT (full-size IgG1) (from UniProt P01857)

Kd (Fc-MST (human)): 66.2 nM
Substance: FcRn:ß2M (recombinant extracellular domain of human FcRn in complex with beta-2-microglobulin, as used for ITC) (from UniProt P55899 24-297; P61769 21-119) (receptor)

From publication PMC9568614
